Measured values taken from article PMC6937562.

Biological target: C3d (human), P01024
Assay: SPR; homemade HJEM2 chip, 61 RU C3d amine-coupled; FH flowed (2 μM to 3.9 nM); Biacore T200, 25 °C, HBS-P pH 7.4; 1:1 steady-state model
Conditions: remark: other sources report otherwise

Chain of C3d (human), P01024 (P01024 1002-1303): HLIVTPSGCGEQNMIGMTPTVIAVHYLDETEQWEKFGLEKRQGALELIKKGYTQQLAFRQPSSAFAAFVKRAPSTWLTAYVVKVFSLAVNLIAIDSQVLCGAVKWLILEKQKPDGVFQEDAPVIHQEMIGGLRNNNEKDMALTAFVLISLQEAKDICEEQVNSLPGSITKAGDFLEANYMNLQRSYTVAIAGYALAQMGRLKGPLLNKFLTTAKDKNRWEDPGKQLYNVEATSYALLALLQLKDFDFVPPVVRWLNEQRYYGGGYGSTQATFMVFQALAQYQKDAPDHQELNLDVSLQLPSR

B1: factor H, P08603 19-1231 (natural protein)
chain: EDCNELPPRRNTEILTGSWSDQTYPEGTQAIYKCRPGYRSLGNVIMVCRKGEWVALNPLRKCQKRPCGHPGDTPFGTFTLTGGNVFEYGVKAVYTCNEGYQLLGEINYRECDTDGWTNDIPICEVVKCLPVTAPENGKIVSSAMEPDREYHFGQAVRFVCNSGYKIEGDEEMHCSDDGFWSKEKPKCVEISCKSPDVINGSPISQKIIYKENERFQYKCNMGYEYSERGDAVCTESGWRPLPSCEEKSCDNPYIPNGDYSPLRIKHRTGDEITYQCRNGFYPATRGNTAKCTSTGWIPAPRCTLKPCDYPDIKHGGLYHENMRRPYFPVAVGKYYSYYCDEHFETPSGSYWDHIHCTQDGWSPAVPCLRKCYFPYLENGYNQNYGRKFVQGKSIDVACHPGYALPKAQTTVTCMENGWSPTPRCIRVKTCSKSSIDIENGFISESQYTYALKEKAKYQCKLGYVTADGETSGSITCGKDGWSAQPTCIKSCDIPVFMNARTKNDFTWFKLNDTLDYECHDGYESNTGSTTGSIVCGYNGWSDLPICYERECELPKIDVHLVPDRKKDQYKVGEVLKFSCKPGFTIVGPNSVQCYHFGLSPDLPICKEQVQSCGPPPELLNGNVKEKTKEEYGHSEVVEYYCNPRFLMKGPNKIQCVDGEWTTLPVCIVEESTCGDIPELEHGWAQLSSPPYYYGDSVEFNCSESFTMIGHRSITCIHGVWTQLPQCVAIDKLKKCKSSNLIILEEHLKNKKEFDHNSNIRYRCRGKEGWIHTVCINGRWDPEVNCSMAQIQLCPPPPQIPNSHNMTTTLNYRDGEKVSVLCQENYLIQEGEEITCKDGRWQSIPLCVEKIPCSQPPQIEHGTINSSRSSQESYAHGTKLSYTCEGGFRISEENETTCYMGKWSSPPQCEGLPCKSPPEISHGVVAHMSDSYQYGEEVTYKCFEGFGIDGPAIAKCLGEKWSHPPSCIKTDCLSLPSFENAIPMGEKKDVYKAGEQVTYTCATYYKMDGASNVTCINSRWTGRPTCRDTSCVNPPTVQNAYIVSRQMSKYPSGERVRYQCRSPYEMFGDEEVMCLNGNWTEPPQCKDSTGKCGPPPPIDNGDITSFPLSVYAPASSVEYQCQNLYQLEGNKRITCRNGQWSEPPKCLHPCVISREIMENYNIALRWTAKQKLYSRTGESVEFVCKRGYRLSSRSHTLRTTCWDGKLEYPTCAKR
Kd: 640 nM
